Test results from publication PMC3433420, “Comprehensive Binary Interaction Mapping of SH2 Domains via Fluorescence Polarization Reveals Novel Functional Diversification of ErbB Receptors” (PLoS ONE, 2012).
Each block holds one binder with its values, some of them ahead of it. Non-standard residues stand in square brackets, D forms with d. No end group written: not given here. pY = N[C@@H](Cc1ccc(OP(=O)(O)O)cc1)C(=O)O; rhodamine = not defined here

Assays:
[1] = target: T1, SRC SH2 domain (human, UniProt P12931-1 151-248); assay: fluorescence polarisation; competition: rhodamine peptide 10 nM, protein at four times its KD, unlabeled competitor peptide in 11 serial 1:3 dilutions; Ki from IC50, one-site model; conditions: both partners purified
T1 construct: SRC, human; also called c-Src; source: bacterial expression, purified

[2] = target: T2, GRB2 SH2 domain (human, UniProt P62993 60-152); assay: fluorescence polarisation; saturation binding in solution: rhodamine peptide fixed at 10 nM, protein titrated 0.002-10 uM, 20 min at room temperature; assay buffer 20 mM HEPES, 100 mM KCl, 0.1% Tween-20, 5 mM DTT, pH 7.8; apparent KD; conditions: both partners purified
T2 construct: GRB2, human; source: bacterial expression, purified
T2 sequence (P62993 60-152): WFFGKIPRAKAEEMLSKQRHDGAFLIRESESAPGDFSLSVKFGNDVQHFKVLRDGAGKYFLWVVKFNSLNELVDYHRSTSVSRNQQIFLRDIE

Ki [1]: 2360 nM
B1: ErbB3pY1222 phosphopeptide, unlabeled competitor (peptide)
peptide: EELG[pY]EYMDVGSD
notes: human ErbB3 around Tyr1222; source: synthetic peptide

Kd [2]: 1460 nM
B2: ErbB4pY1208 phosphopeptide, rhodamine-labelled (peptide)
peptide: rhodamine-NEPL[pY]LNTFANTD
modifications: reading uncertain
notes: human ErbB4 around Tyr1208; the labelled form stood in the FP saturation assay behind Ki (exp FP); source: synthetic peptide
